The source of these data is patent US20190167721A1 (FOURTH MILITARY MEDICAL UNIVERSITY XI AN, published 2019).

A value given as a limit tells only on which side of the number the result lay.

Assay [1] deals with T1, glycosylated CEA (human, UniProt P06731 35-685, glycosylated (sites and glycans not stated)).
T1 construct: whole, on cells; also called glycosylated CEA antigen; MG7
T1 sequence (looked up): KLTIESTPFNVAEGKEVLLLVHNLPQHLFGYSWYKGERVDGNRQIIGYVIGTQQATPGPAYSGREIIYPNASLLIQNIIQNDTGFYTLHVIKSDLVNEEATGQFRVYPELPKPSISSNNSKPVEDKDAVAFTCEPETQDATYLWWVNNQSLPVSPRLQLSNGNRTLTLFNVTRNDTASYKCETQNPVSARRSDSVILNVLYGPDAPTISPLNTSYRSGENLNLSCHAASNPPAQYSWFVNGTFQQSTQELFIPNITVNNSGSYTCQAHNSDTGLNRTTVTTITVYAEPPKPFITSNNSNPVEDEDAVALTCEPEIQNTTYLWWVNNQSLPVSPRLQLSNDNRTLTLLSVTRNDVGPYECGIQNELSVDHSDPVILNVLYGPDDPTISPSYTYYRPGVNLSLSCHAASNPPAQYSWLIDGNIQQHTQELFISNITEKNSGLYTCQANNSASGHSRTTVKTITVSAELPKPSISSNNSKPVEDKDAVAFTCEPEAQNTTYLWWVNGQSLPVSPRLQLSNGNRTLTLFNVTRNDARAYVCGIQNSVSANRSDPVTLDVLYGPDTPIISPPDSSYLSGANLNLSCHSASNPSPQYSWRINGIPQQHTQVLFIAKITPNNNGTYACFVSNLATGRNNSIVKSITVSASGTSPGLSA
Briefly: flow cytometry on CRYPT cells, goat anti-mouse IgG-APC, logistic fit of MFI. Here is the method: (§1) The antibodies FM2, FM4, FM5, and FM6 were diluted with PBS buffer containing 1% BSA, and incubated with SW620-CEA or CRYPT cells (final concentrations: 50 μg/ml, 5 μg/ml, 0.5 μg/ml, 0.05 μg/ml, 0.005 μg/ml, 0.0005 μg/ml) for 1 hour at room temperature; the cells were washed twice with PBS buffer containing 1% BSA, and then incubated with Goat Anti Mouse IgG-APC for 1 hour; the cells were washed twice with PBS buffer containing 1% BSA and resuspended in PBS buffer; the APC fluorescence values of the cells were read using BD Accuri C6 FACS.
(§2) Using the median fluorescence value (MFI) as the ordinate and the antibody concentration (μg/ml) as the abscissa, the S-curve was fitted using a logistic equation to calculate the antibody binding EC50, the results are shown in the following table: […]
Background: A flow cytometer gives signals particle by particle.

In assay [2] the target is T2, CEA overexpressed on SW620-CEA cells (CEACAM5, non-glycosylated state) (UniProt P06731 35-685).
T2 construct: whole, on cells; also called CEACAMS; CEA antigens with a lower degree of glycosylation
T2 sequence (looked up): T1 sequence (looked up)
Briefly: flow cytometry on SW620-CEA cells, goat anti-mouse IgG-APC, logistic fit of MFI. As for the experimental part: as §1, §2

The target of assay [3] is T1, glycosylated CEA. Briefly: ratio of EC50 values from flow cytometry on cells.

B1: FM2 (scFv, V domains shown)
VH: DVKLVESGGGLVKPGGSLKLSCAASGFTFSRYTMSWVRQTPEKRLEWVATISNSGSYTYYRDSVKGRFTISRDNAKNTLYLQMSSLKSEDTAMYYCTRGSPWGQGTLVTVSA
VL: DIQMTQSPDSLSASVGETVTITCGASENIYGALNWYQRKQGKSPQLLIYGATKLADGMSSRFSGSGSNRQYSLKISSLHPDDVATYYCQNVLSKPYAFGGGTKLEIK
notes: also called antibody FM2; FM2 single-chain antibody
For B1, the EC50 with glycosylated CEA [1] amounted to 0.02 µg/mL; in assay [2] it was 0.8 µg/mL.

B2: FM5 (scFv, V domains shown)
VH: QVQLKESGPGLVAPSQNLSITCTVSGFSLTSYAINWVRQPPGKGLEWLGIIWTGGGTNYNSALKSRLSISKDNSKSQVFLKMNSLQTDDTARYYCASGVYYFDYWGLGTTLTVSS
VL: DIVMTQSHKFMSTSVGDRVSITCKASQDVTTAVAWYQQKPGQSPKVLIFWASTRHTGVPDRFTGSGSGTDYTLTISSVQAEDLALYYCQQYYRTPRTFGGGTKLEIK
notes: also called antibody FM5; FM5 single-chain antibody
Regarding B2, the results for the EC50 (with glycosylated CEA [1]; in assay [2]) were 0.04 µg/mL and 0.2 µg/mL, respectively.

B3: FM4 (scFv, V domains shown)
VH: EVKLVESGGGLVQPGGSLRLSCSISGFTFTDYYMNWVRQSPGKALEWLGFIRNKVNGDTTEYSASVKGRFTISRDISQSILYLQMNTLRTEDSATYYCARDKGIAYYFDYWGQGTTLTVSS
VL: QIVLSQSPAILFASPGEKVTMTCRASSSVSYIHWYQQKPGSSPKPWIHGTSNLASGVPARFSGSGSGTSYSLTISRMEAEDAATYYCQQWSSNLSTFGGGTKLEIK
notes: also called antibody FM4; FM4 single-chain antibody
Take B3: in the assay with glycosylated CEA [3], the “selectivity (glycosylated CEA on CRYPT against non-glycosylated CEA on SW620-CEA)” value is more than 100 fold. In the assay with glycosylated CEA [1], this molecule gave an EC50 of 0.51 µg/mL.

Broadly, the EC50 is the concentration giving half of the maximal effect. Read a high EC50 as lower potency in that assay.
